According to patent US20190233498A1 (H LUNDBECK A S, published 2019):

T1: human PACAP38 (human, not fully specified; C-terminal lysine is amidated; N-terminal or C-terminal biotin in the HTRF and PC-12 cell binding assays)
T1 construct: synthetic peptide, bought; also called huPACAP (1-38)
T1 peptide: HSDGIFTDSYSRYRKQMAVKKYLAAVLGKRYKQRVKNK

T2: human PACAP27 (human, C-terminal leucine is amidated; 125I-labelled in Example 10)
T2 peptide: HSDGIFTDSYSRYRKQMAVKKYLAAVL

T3: human VIP (human)
T3 construct: also called Vasoactive Intestinal Peptide
T3 peptide: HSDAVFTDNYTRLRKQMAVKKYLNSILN


Tests used:
human PACAP38 [1] = target: T1, human PACAP38; assay: SPR, Ab immobilised
Method: (§1) Binding affinities of monoclonal antibodies for human PACAP were estimated using SPR on the PROTEON™ XPR36 (Bio-Rad, Hercules, Calif.). Antibody was immobilized to the surface of general amine coupling (“GLC” or “GLM”) Chips (Bio-Rad, Hercules, Calif.). A dilution series of human PACAP38 (SEQ ID NO: 1241) prepared in 1×PBST Buffer (4.3 mM Na Phosphate, 1.4 mM K Phosphate, 135 mM NaCl, 2.7 mM KCl 0.05% Polysorbate-20) purchased from Teknova (Cat# P1192, Teknova, Hollister, Calif.) and supplemented with 0.25 M arginine (from J.T. BAKER®), 0.2 mg/ml BSA (Jackson Immuno Research Labs, West Grove, Pa.), and 0.005% sodium azide (VWR International, Radnor, Pa.) with the pH adjusted to 7 was used to query the antibodies. Antigen (ranging from 1.23 nM to 100 nM) was typically run sequentially with association times of 2-4 minutes and dissociation times of 3-120 minutes grouped with the PROTEON™ Manager Software (v3.1.0.6 (Bio-Rad, Hercules, Calif.)) and fitted using a 1:1 Langmuir binding model. Surfaces were regenerated between analyte queries using 0.85% Phosphoric Acid.

human PACAP27 [2] = target: T2, human PACAP27; assay: SPR, Ab immobilised
Method: [The procedure below names another target; the source says it served here with some conditions changed.] as §1

human VIP = target: T3, human VIP; assay: SPR, Ab immobilised
Method: [The procedure below names another target; the source says it served here with some conditions changed.] as §1

human PACAP38 [3] = target: T1, human PACAP38; assay: cell-based or functional assay
human PACAP27 [4] = target: T2, human PACAP27; assay: cell-based or functional assay
human PACAP38 [5] = target: T1, human PACAP38; assay: cell-based or functional assay
human PACAP38 [6] = target: T1, human PACAP38; assay: cell-based or functional assay
human PACAP38 [7] = target: T1, human PACAP38; assay: HTRF binding, biotin-PACAP38
Method: In parallel, 10 μl of an antibody dilution series (highest final concentration of 100 nM) were incubated with 10 μl of N-terminal or C-terminal biotinylated PACAP38 (35 nM final) alone, or in combination with either PACAP27 (350 nM final) or VIP (350 nM final), i.e., 10× PACAP27 or 10×VIP, respectively, in a HTRF plate. 20 μl of Eu³⁺ cryptate labeled anti-hu Fc donor and 20 μl of d2-labeled streptavidin acceptor were added to each well and incubated for 1 hour at room temperature. Fluorescence was measured at 620 and 665 nm with a delay of 300 μsec.
EC₅₀ values, i.e. the concentration of an antibody that yields a response halfway between the baseline and the maximum value within a specified time period, were computed for each antibody based upon their binding curves and are shown in Table 1 below. […] A humanized form of antibody Ab1 was produced and is identified by an appended “.H”, i.e., Ab1.H, and it also bound PACAP38 with high affinity.

human PACAP38 [8] = target: T1, human PACAP38; assay: inhibition of 100 nM biotin-PACAP38 binding to PC-12 cells, TRF
Method: To identify antibodies that block PACAP38 binding to PAC1-R-expressing cells, adherent PC-12 cells (ATCC, Manassas, Va.) expressing PAC1-R were used in a Europium-based PAC1-R expressing cells binding assay.
Antibody solutions were incubated with N-terminal biotinylated PACAP38 at 10× the final concentration (100 nM or 30 nM) for 1 hr, then added to PC-12 cells that were plated 24 hrs. prior in black clear bottom 96 well plates (COSTAR™, Corning Incorporated, Corning, N.Y.) and further incubated for 1 hr at room temperature. After three washes, the cells were incubated with 20 μl Europium-labeled streptavidin (PerkinElmer, Waltham, Mass.) for 1 hr at room temperature. Cells were washed three times, then 20 μl DELFIA® Enhancement solution (PerkinElmer, Waltham, Mass.) was added to each well and incubated for 15 minutes with gentle shaking. Plates were read (Time Resolved Fluorescence (“TRF”)) on SPECTRAMAX® (Molecular Devices, Sunnyvale, Calif.) plate reader.
FIGS. 14A-14BB are representative of the inhibition curves obtained by this method (results are shown for Ab1, Ab2, Ab3, Ab4, Ab5, Ab6, Ab7, Ab8, Ab9, Ab10, Ab11, Ab12, Ab13, Ab14, Ab15, Ab16, Ab17, Ab18, Ab19, Ab1.H, Ab10.H, Ab22, Ab23, Ab3.H, Ab4.H, Ab5.H, Ab9.H, and Ab12.H, respectively) wherein the PAC1-R expressing cells were PC-12 cells.

Binder | Kd (human PACAP38 [1]) [pM] | koff (human PACAP38 [1]) [s⁻¹] | kon (human PACAP38 [1]) [M⁻¹ s⁻¹] | Kd (human PACAP27 [2]) [pM] | koff (human PACAP27 [2]) [s⁻¹] | kon (human PACAP27 [2]) [M⁻¹ s⁻¹] | Kd (human VIP) [µM] | koff (human VIP) [s⁻¹] | kon (human VIP) [M⁻¹ s⁻¹] | IC50, 0.1 nM PACAP38-induced PAC1-R mediated cAMP increase (human PACAP38 [3]) [pM] | IC50, 0.1 nM PACAP27-induced PAC1-R mediated cAMP increase (human PACAP27 [4]) [pM] | IC50, 5 nM PACAP38-induced human VPAC1-R mediated cAMP increase (human PACAP38 [5]) [µM] | IC50, 1 nM PACAP38-induced human VPAC2-R mediated cAMP increase (human PACAP38 [6]) [µM] | EC50 (human PACAP38 [7]) [µM] | IC50 (human PACAP38 [8]) [µM]
anti-PACAP antibody Ab11 (antibody, human IgG1, kappa, N297A, V domains shown, full-length rabbit/human chimeric antibody) VH: QSVEESGGRLVTPGTPLTLTCTASGFSLSRYAMGWVRQAPGKGLEWIGDISTYGTTDYASWVNGRFTISRTSTTVTLKMTSLTTEDTATYFCARDYWLSLWGQGTLVTVSS VL: AAVLTQTPSPVSAAVGGTVTIKCQSSQSVYDNNALAWYQQKPGQPPKLLIYAASNLASGVPDRFSGSGSGTQFTLTISGVQCDDAATYYCLGGYDDAADNAFGGGTEVVVKR | 110 | 3.1e-05 | 270000 | 420 | 0.00011 | 260000 | 0.23 | 0.047 | 200000 | 56.7 | 109 | 0.000541 | 0.000265 | 0.00053 | 0.0246
anti-PACAP antibody Ab12 (antibody, human IgG1, kappa, N297A, V domains shown, full-length rabbit/human chimeric antibody) VH: QSVEESGGRLVTPGTPLTLTCTASGFSLSSYAMGWVRQAPGKGLEWIGDISTYGTTDYASWVYGRFTISRTSTTVTLKMTSLTTEDTATYFCARDYWLSLWGQGTLVTVSS VL: AAVLTQTPSPVSAAVGGTVTIKCQSSQSVYDNNALAWYQQKPGQPPKLLIYAASTLASGVPSRFSGSGSGTEFTLTISGVQCDDAATYYCLGGYYDPADNAFGGGTEVVVKR | ≤ 32 | ≤ 1e-05 | 310000 | 70 | 2.1e-05 | 290000 | 0.0082 | 0.0024 | 290000 | 51.1 | 60.4 | 0.000292 | 0.000179 | 0.00051 | 0.0226
anti-PACAP antibody Ab7 (antibody, human IgG1, kappa, N297A, V domains shown, full-length rabbit/human chimeric antibody) VH: QSVEESGGRLVTPGTPLTLTCTASGIDLSGYAMGWVRQAPGKGLEWIGDISTYGTTDYASWVNGRFTISRTSTTVTLKMTSLTTEDTATYFCARDYWLSLWGPGTLVTVSS VL: AAVLTQTPSPVSAAVGGTVTIKCQSSQSVYDNNALAWYQQKPGQPPKLLIYAASTLASGVPSRFKGSGSGTQFTLTINGVQCDDAATYYCLGGYDDPADNAFGGGTEVVVKR | ≤ 56 | ≤ 1e-05 | 180000 | 200 | 4.5e-05 | 230000 | 0.034 | 0.0088 | 260000 | 111 | 45.8 | 0.000687 | 0.000162 | 0.00045 | 0.022
anti-PACAP antibody Ab3 (antibody, human IgG1, kappa, N297A, V domains shown, full-length rabbit/human chimeric antibody) VH: QEQLVESGGGLVQPEGSLTLTCTASGFSFSSSDYMCWVRQAPGKGLEWIGCIDAGSSGDTYFASWAKGRFTISKTSSTTVTLQMTSLTAADTATYFCARHLYGSITFAFGLWGQGTLVTVSS VL: AAVLTQTPSPVSAAVGGTVTINCQASQSIGSDLAWYQQKPGQPPKLLIYDASTLASGVPSRFSGSGSGTQFTLTISGVQCDDAATYYCQGTYYSSGWYTAFGGGTEVVVKR | 160 | 4.2e-05 | 260000 | 370 | 0.00014 | 370000 | 100000 | 0.1 | – | 227 | 90 | 0.00174 | 0.000667 | 0.00045 | 0.0172
anti-PACAP antibody Ab13 (antibody, human IgG1, kappa, N297A, V domains shown, full-length rabbit/human chimeric antibody) VH: QSVEESGGRLVTPGTPLTLTCTVSGFSLSSAAMNWVRQAPGKGLEWIGIIDNTAGTYYAPWAKGRFTISKTSSTTVDLKMTSPTTEDTATYFCARGGGEFFIWGPGTLVTVSS VL: AQVLTQTPSSVSAAVGGTVTINCQSSQSVHDGSYLSWYQQKPGQPPNFLIYQASNLASGVPSRFKGSGSGTQFTLTISDLECDDAATYYCAGGYSSNICGFGGGTEVVVKR | 64 | 2.7e-05 | 420000 | 120 | 6.6e-05 | 540000 | 0.14 | 0.046 | 320000 | 82.4 | 74.1 | 0.00218 | 0.000652 | 0.00048 | 0.0531
